The target of this experiment is N-term biotinylated candidalysin (Candida albicans). Description: SPR; Biacore T100; N-term biotinylated candidalysin captured (up to 1000 RU) on neutravidin coupled to a CM5 chip, free sites blocked with PEG-biotin; EGFR domains injected at 250, 500, 1000 and 2000 nM at 10 µL/min; HBS-EP buffer (10 mM HEPES pH 7.4, 150 mM NaCl, 3 mM EDTA, 0.005% Surfactant P20); 25 °C; neutravidin-only reference cell. A general note: In SPR one partner is held on a chip, and binding of the other changes the refractive index at the surface.
Sequence of N-term biotinylated candidalysin (Candida albicans) (Q07730 62-92): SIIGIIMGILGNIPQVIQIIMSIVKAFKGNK

A value given as a limit tells only on which side of the number the result lay.

The substance “EGFR transmembrane portion (domain or fragment)” yielded an SPR signal response below 50 RU.
